Measurements taken from the nanobody polyreactivity screen of Harvey et al. (2022).

assay: yeast display, Sf9 membrane polyspecificity reagent, FACS + sequencing; frameworks hold sequencing errors
Method in brief: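 Nanobodies came from a synthetic yeast display library in Saccharomyces cerevisiae BJ5465, induced with galactose for 36–48 hours and stained for 1 hour at 4 °C with 10% biotinylated, detergent-solubilized Sf9 membrane reagent. Cells were enriched on streptavidin microbeads and then FACS-sorted, with low and high (top ~1%) gates set on anti-HA fluorescence for expression and streptavidin fluorescence for reagent binding. Each polyreactivity label reflects the gate a clone came from. Genes were amplified by colony PCR, sequenced by MiSeq 2 × 250 and filtered by CDR length.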

Row | Sequence | polyreactivity (PSR sort gate)
1 | QVQLVESGGGLVQAGGSLRLSCAASGITFVAYAMGWYRQAPGKERELVAAISYNGGSTNYADSVKGRFTISRDNAKNTVYLQMNSLKPEDTAVYYCAADLAEFYPRFNYWGQGTQVTVSS | low polyreactivity
2 | QVQLVESGGGLVQAGGSLRLSCAASGITFVDYAMGWYRQAPGKEREFVAAISWSGGSTYYADSVKGRFTISRDNAKNTVYLQMNSLKPEDTAVYYCAARPKFGTAHRYYYWGQGTQVTVSS | high polyreactivity
3 | QVQLVESGGGLVQAGGSLRLSCAASGITFVGYAMGWYRQAPGKERELVAVINTSSSTYYADSVKGRFTISRDNAKNTVYLQLNSLKPEATAVYYCGVRGRYYYRRPQISYEYWGQGTQVTVSS | low polyreactivity
4 | QVQLVESGGGLVQAGGSLRLSCAASGITFVHNVMGWYRQAPGKDRELVAAINSGGRTYYADSVKGRFTISRDNAKKTVYLQMNSLKPEDSAVYYCAALGDKRGGGHYWGQGTQVTVSS | high polyreactivity
5 | QVQLVESGGGLVQAGGSLRLSCAASGITFVHYAMGWYRQAPGKERELVAAISSGGGSTYYADSVKGRFTLSRDHAKNTGNLQMHSLNPEDTAVDNCAAYVLPYGEYDYWGQGTQVTVSS | low polyreactivity
6 | QVQLVESGGGLVQAGGSLRLSCAASGITFVHYVMGWYRQAPGKERELVAVITKGGARTSYADSVKGRFTISRDNAKNTVYLQMNSLKPEDTAVYYCAAREVYPLFTKYYYWGQGTQVTVSS | high polyreactivity
7 | QVQLVESGGGLVQAGGSLRLSCAASGITFVPNAMGWYRQAPGKERELVARIDNGVSTNYADSVKGRFTISRDNAKNTVYLQMNSLKPEDTAVYYCAVGYWDSRYRYDWPNSDYWGQGTQVTVSS | low polyreactivity
8 | QVQLVESGGGLVQAGGSLRLSCAASGITFVPYAMGWDRQAPGKERELVAAISSSGGSTYYADSVKGRFTISRDNAKNTVYLQMNSLKPEDTAVYYCNVRTHSYIGMDYWGQGTQVTVSS | low polyreactivity
9 | QVQLVESGGGLVQAGGSLRLSCAASGITFVPYVMGWYRQAPGKERELVAAITVRGSRTYYADSVKGRFTISRDNAKNTVYLQMNSLKPEDTAVYYCAAGRYLSRTFFTYYYWGQGTQVTVSS | high polyreactivity
10 | QVQLVESGGGLVQAGGSLRLSCAASGITFVQNVMGWYRQAPGKEREFVAGINNSGGSTYYADSVKGRFTISRDNAKNTVYLQMNSLKPEDTAVYYCAAVYDRYTYAFVYRYRRMYYWGQGTQVTVSS | low polyreactivity
11 | QVQLVESGGGLVQAGGSLRLSCAASGITFVRNAMGWYRQAPGKEREFVAAISGSGVSTYADSVKGRFTISRDNAKNTVYLQMNSLKQEDTAVYYCNTDEWYHFYHGSHKYDYWGQGTQVTVSS | low polyreactivity
12 | QVQLVESGGGLVQAGGSLRLSCAASGITFVRNAMGWYRQAPGKEREFVAAISGSGVSTYADSVKGRFTISRDNAKNTVYLQMNSLNPEDTAVYYCARDFPWSYAWYDYWGQGTQVTVSS | low polyreactivity
13 | QVQLVESGGGLVQAGGSLRLSCAASGITFVRNAMGWYRQAPGKERELVAAISSGGSTYYADSVKGRFTISRDNAKNTVYLQINSLKPEDTAVYYCNAQIYGRQYRYRWHYYWGQGTQVTVSS | high polyreactivity
14 | QVQLVESGGGLVQAGGSLRLSCAASGITFVRNTMGWYRQAPGKERELVAAIDSGGNTNADSVKGRFTISRDNAKNTVYLQMNSLTPEDTAVYYCAVDGGEFSSYGYWGQGTQVTVSW | low polyreactivity
15 | QVQLVESGGGLVQAGGSLRLSCAASGITFVRNTMGWYRQAPGKERELVAAISKSGDNTYYADSVKGRFTISRDNAKNTVYLQMNSLKPEDTAVYYCNKAYRKFYYGYDYWGQGTQVTVSS | high polyreactivity
16 | QVQLVESGGGLVQAGGSLRLSCAASGITFVTYAMGWYRKAPGKERELVAAISRSGGRTYYADSVKGRFTISRDNAKNTVYLQMNSLKPEDTAVYYCAAERKNKYDYWGQGTQVTVSS | high polyreactivity
17 | QVQLVESGGGLVQAGGSLRLSCAASGITFVYYTMGWYRQAPGKERELVAAISSTGGSTYYADSVKGRFTISRDNAKNTVYLQMNSLKPEDTAVYYCAADARTFGGYGYWGQGTQVTVAS | high polyreactivity
18 | QVQLVESGGGLVQAGGSLRLSCAASGITFVYYVMGWYRQAPGKERELVAAINAGGGSTYYADSVKGRFTISRDNAKNTVYLQMNSLKPEDTAVYYCNARVRVRLGRNWSSYYYWGQGTQVTVSS | high polyreactivity
19 | QVQLVESGGGLVQAGGSLRLSCAASGITFWFYSKGWYRQSPGNERELVAAISRSGSTNYADSVKGRFTISRDNAKNTVYLQMNSLKPEDTAVYYCAASTYKYKLLYYQYDYWGQGTQVTVSS | high polyreactivity
20 | QVQLVESGGGLVQAGGSLRLSCAASGITFWGYAMGWYRQAPGKEREFVARINWSGGRTYYAESVKGRFTNSRDNAKNTVYLQMNSLKPEDTAVYYCAATSLIYGYRTYDYWGQGTQVTVSS | high polyreactivity
21 | QVQLVESGGGLVQAGGSLRLSCAASGITFWKYAMGWYRQAPGKERELVAVITKSGGSTYYADSVKGRFTISRDNAKNTVYLQMNSLKPEDTAVYYCAASSETYYYGYEYWGQGTQVTVSS | high polyreactivity
22 | QVQLVESGGGLVQAGGSLRLSCAASGITFWKYTMGWYIPAPGKERELVASIRIGGSTYYADSVKGRFTISRDNAKNTVYLQMNSLKPEDTAVYYCAAKGIYGLQGSPRSGYYYWGQGTQVTVSS | high polyreactivity

Row | Sequence | polyreactivity (PSR sort gate)
23 | QVQLVESGGGLVQAGGSLRLSCAASGITFWNYAMGWYRQAPGKERELVAAISYSGGSTYYADSVKGRFTISRDNAKNTVYLQMNSLKPEDTAVYYCAATLPTNWVRYEYWGQGTQVTVSS | low polyreactivity
24 | QVQLVESGGGLVQAGGSLRLSCAASGITFWSNSMGWYRQAPGKERELVATITSSGGDNTNYADSVKGRFTISRDNAKNSVYLQMNSLKPEDTAVYYCNKEGQQSYRWRMDYWGQGTQVTVSS | low polyreactivity
25 | QVQLVESGGGLVQAGGSLRLSCAASGITFWSYAMGWYRQAPGKERELVAAITWRGGSTYYADSVKGRFTISRDNAKNTVYLQMNSLKPEDTAVYYCNAVYRRDGYNYWGQGTQVTVSS | high polyreactivity
26 | QVQLVESGGGLVQAGGSLRLSCAASGITFWYYAMGWYRQAPGKERELVAVISRGGSTYYADSVKGRFTISRDNAKNTVYLQMNSLKPEDTAVYYCAARQRWYTYTRQEYDYWGQGTQVTVSS | high polyreactivity
27 | QVQLVESGGGLVQAGGSLRLSCAASGITFYDNDMGWYRQAPGKERELVAGITGTTVGTYYADSVKGRFTISRDYAKNTVYLQMNSLKPEDTAVYYCAATSLAGYYQFDYWGQGTQVTVSS | low polyreactivity
28 | QVQLVESGGGLVQAGGSLRLSCAASGITFYDYAMGWYRQAPWKERELVAAISFSGSRTYYADSVKGRFTISRDNAKNTVYLQMNSLKPEDTAVYYCAASQARNYKIYDYWGQGTQVTVSS | high polyreactivity
29 | QVQLVESGGGLVQAGGSLRLSCAASGITFYDYAMGWYRQEPGKERELVAAINSSGVRTYYADSVKGRFTISRDNAKNTVYLQMNSLKPEDTAVYYCAAVRRGPYISRSDMDYYWGQGTQVTVSS | high polyreactivity
30 | QVQLVESGGGLVQAGGSLRLSCAASGITFYGNAMGWYRQAPGKERELVAAISSSGGTTYYADSVKGRFTISRDNAKNTVYLQMNSLKPEDTAVYYCNALHPVVYYGTYFNLRRYDYWGQGTQVTVSS | low polyreactivity
31 | QVQLVESGGGLVQAGGSLRLSCAASGITFYGNAMGWYRQAPGKERELVANTYYADSVKGRFTISRDNAKNTVYLQMNSLKPEDTAVYYCATRNARYRSQPPGYDYWGQGTQVTVSS | low polyreactivity
32 | QVQLVESGGGLVQAGGSLRLSCAASGITFYGNAMGWYRQAPGKERELVATISRSDGRTYYADSVKGRFTISRDNANNTVYLQMNSLKPEDTAVYYCAAYTTRPYWGQGTQVTVSS | high polyreactivity
33 | QVQLVESGGGLVQAGGSLRLSCAASGITFYGYAMGWYRQAPGKERELVARISSGGTTKYADSVKGRFTISRDNAKNTVYLQMNSLKPEDTAVYYCAVGGYWWYYGFYYWGQGTQVTVSS | high polyreactivity
34 | QVQLVESGGGLVQAGGSLRLSCAASGITFYGYAMGWYRQAPGKERELVAVITSSGSSTYYADSVKGRFTISRDNAKNTVYLQMNSLKPEDTAVYDCNARPGRRSLRSRTYDYWGQGTQVTVSS | high polyreactivity
35 | QVQLVESGGGLVQAGGSLRLSCAASGITFYHYAMGWYRQAPGKKRELVASITDGGITKYADSVKGRFTISRDNAKYTVYLQMNSQNPEDTAVYYCAAIAYPDIPTYFDYDSDFFYWGQGTQVTVSS | high polyreactivity
36 | QVQLVESGGGLVQAGGSLRLSCAASGITFYIYAMGWYRQAPGKEREFVAAISDDGSTHYADSVKGRFTISRDNAKNTVYLQLNSLKPEDTAVYYCNADYYWFFDFFDYDYWGQGTQVTVSS | low polyreactivity
37 | QVQLVESGGGLVQAGGSLRLSCAASGITFYIYAMGWYRQSPGKERELVATISWSDGRTYYADSVKGRFTISRDNAKNTVYLLMNSLKPEDTAVYYCAADWWYYQFDYEYWGQGTQVTVSS | low polyreactivity
38 | QVQLVESGGGLVQAGGSLRLSCAASGITFYKNVMGWYRQAPGKERELVAAISSSGGSTYYADSVKGRFTISRDNAKNTVYLQMNSLKPEDTAVYYCAADDPLYTPYEFDYWGQGTQVTVSS | low polyreactivity
39 | QVQLVESGGGLVQAGGSLRLSCAASGITFYKNVMGWYRQAPGKERELVAAISSSGGSTYYADSVKGRFTISRDNAKNTVYLQMNSLKPEDTAVYYCAADEDDVVSGFLRYFYVAYYYWGQGTQVTVSS | low polyreactivity
40 | QVQLVESGGGLVQAGGSLRLSCAASGITFYKYTMGWYRQAPGKERELVAAISVRGGRTYYADSVKGRFTISRDNAKNTVYLQMNSLKPEDTAVYYCNRVPKDAYDYWGQGTQVTVSS | high polyreactivity
41 | QVQLVESGGGLVQAGGSLRLSCAASGITFYKYTMGWYRQAPGKERELVAAISVRGGRTYYADSVKGRFTISRDYAKNTVDLQMNSLKPEDTAVYYCAAGSQPGRKYYYWGQGTQVTVSS | high polyreactivity
42 | QVQLVESGGGLVQAGGSLRLSCAASGITFYLYAMGWYRQAPGKERELVAAISSSGGSTYYADSVKGRFTISRDNAKNTVYLQMNSLKPEDTAVYYCNASRRTVPYRYDYWGQGTQVTVSS | high polyreactivity
43 | QVQLVESGGGLVQAGGSLRLSCAASGITFYPYVMGWYRQAPGKERELVAVITWSGGRTYYADSVKGRFTISRDNAKNTVYLQMNSLKPEDTAVYYCAADPLSGYDYWGQGTQVTVSS | low polyreactivity
